Earlier results on one substance are cited in PMC9313406.

The target in the series is ACE2 (dimeric) (Homo sapiens) (UniProt Q9BYF1). The experiment in a line: SPR. (In general: Surface plasmon resonance follows binding to a sensor surface in real time, without labels.)
ACE2 (dimeric) (Homo sapiens), sequence (Q9BYF1 18-740): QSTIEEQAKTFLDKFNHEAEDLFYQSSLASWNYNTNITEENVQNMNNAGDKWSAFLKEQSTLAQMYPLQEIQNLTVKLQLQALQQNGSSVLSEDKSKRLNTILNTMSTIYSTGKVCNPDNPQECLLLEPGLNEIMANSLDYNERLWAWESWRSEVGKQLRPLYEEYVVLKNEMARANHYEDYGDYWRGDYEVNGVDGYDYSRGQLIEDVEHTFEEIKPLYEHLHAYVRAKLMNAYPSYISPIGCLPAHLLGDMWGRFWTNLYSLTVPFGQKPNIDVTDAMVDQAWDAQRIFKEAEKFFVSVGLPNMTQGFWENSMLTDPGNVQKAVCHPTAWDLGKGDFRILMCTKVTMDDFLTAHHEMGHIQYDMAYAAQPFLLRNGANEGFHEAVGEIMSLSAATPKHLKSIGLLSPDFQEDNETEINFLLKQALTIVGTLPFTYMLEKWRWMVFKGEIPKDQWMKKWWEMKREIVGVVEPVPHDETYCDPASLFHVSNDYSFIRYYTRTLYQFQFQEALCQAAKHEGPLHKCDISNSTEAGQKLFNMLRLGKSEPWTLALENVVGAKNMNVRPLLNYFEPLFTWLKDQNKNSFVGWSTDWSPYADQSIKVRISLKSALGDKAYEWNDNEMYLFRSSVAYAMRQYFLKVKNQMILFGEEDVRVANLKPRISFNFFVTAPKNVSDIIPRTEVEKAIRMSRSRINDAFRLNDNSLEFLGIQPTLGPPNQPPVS

In the case of Spike protein (from UniProt P0DTC2), the Kd is 0.283 nM.

One may read the Kd as the concentration at which binding is half-saturated.
